Among the data in paper PMC13648279 are Kd and fold weakening of binding against wild-type MbTEC^PH values, retold here.

The target of experiment [1] is MbTEC^PH (R28E) (Monosiga brevicollis MX1). Put plainly: FP. The note with it: domain or fragment.
The target in experiment [2] is MbTEC^PH (PH domain of Monosiga brevicollis TEC, residues 1-174), labelled with Atto488 (Monosiga brevicollis MX1). Put plainly: fluorescence polarisation; fluorescence anisotropy; MbTEC^32K constructs serially diluted into 200 nM Atto488-labelled PH domain; 20 mM HEPES pH 7.4, 150 mM NaCl, 2% glycerol, 1 mM TCEP; 21 °C; one-site binding model. In general terms: Fluorescence polarisation rises when a labelled molecule tumbles more slowly, as on binding a larger partner.

For experiment [3], the target named is MbTEC^PH (R28E) (Monosiga brevicollis MX1). Described as above.
The target in experiment [4] is MbTEC^PH (PH domain of Monosiga brevicollis TEC, residues 1-174), labelled with Atto488. Kind of experiment: fluorescence anisotropy. As to conditions: parent: 4.0 ± 1.3 µM.

In experiment [1], “MbTEC^32K (SH3-SH2-kinase module of Monosiga brevicollis TEC, residues 229-667)” showed a Kd of 22.4 µM. Regarding “MbTEC^32K (SH3-SH2-kinase module of Monosiga brevicollis TEC, residues 229-667) (domain or fragment)”, in experiment [2], the Kd came out at 4 µM. The substance also displayed a fold weakening of binding against wild-type MbTEC^PH in experiment [3] of 5 fold. Regarding “MbTEC^32K (SH3-SH2-kinase module of Monosiga brevicollis TEC, residues 229-667) Y579D; R581E”, in experiment [4], the equilibrium dissociation constant (Kd) was found to be 195 µM.

The Kd is the constant that tells how readily two partners part at equilibrium.
